In assay [1] the target is wild-type (WT) SARS-CoV-2 S-protein trimer (SARS-CoV-2) (UniProt P0DTC2). Nature of the assay: ELISA.
For assay [2], the target named is prefusion stabilized SARS-CoV-2 S-protein trimer (SARS-CoV-2) (UniProt P0DTC2). Description: ELISA.
Assay [3] addresses wild-type (WT) SARS-CoV-2 S-protein trimer (SARS-CoV-2) (UniProt P0DTC2).
Assay [4] deals with PD-Fc (human) (UniProt Q9BYF1). Description: BLI.
The target of assay [5] is PD-Li-Fc (human) (UniProt Q9BYF1). Nature of the assay: BLI.
The target in assay [6] is Fc-Li-PD (human) (UniProt Q9BYF1). Description: BLI.
Assay [7] has as its target PD-CLD-Fc (human) (UniProt Q9BYF1). Nature of the assay: BLI.

In the case of “PD-CLD-Fc (from UniProt Q9BYF1 18-740) (Fc fusion)”, the IC50 in assay [1] worked out at 0.1 nM; in assay [2], 10 nM.

Turning to “PD-Fc (from UniProt Q9BYF1 18-615) (Fc fusion)”, the IC50 of neutralisation: infection of ACE2-transduced HEK293T cells by SARS-CoV-2 pseudotyped VSV particles (luciferase); S protein on the pseudovirus with cell-surface ACE2 in assay [3] was found to be 12 nM.

The substance “PD-Li-Fc (from UniProt Q9BYF1 18-615) (Fc fusion)” yielded an IC50 of neutralisation: infection of ACE2-transduced HEK293T cells by SARS-CoV-2 pseudotyped VSV particles (luciferase); S protein on the pseudovirus with cell-surface ACE2 in assay [3] of 12 nM.

As to “S1 monomer (BLI of Fig. 3B) (domain or fragment)”, the ratio of the KD for S1 monomer to the KD for S-protein trimer in assay [4] and in assay [5] was 3 fold throughout. Besides, the figures for the Kd in assay [6] and in assay [7] were 45 nM and 11 nM, respectively.

These data come from paper PMC9728973.
